Laboratory results from paper PMC9253517 (The Journal of Experimental Medicine, 2022).

Experiments:
[1] = target: SARS-CoV-2 Wuhan-Hu-1 NTD (SARS-CoV-2, UniProt P0DTC2 14-307); assay: cell-based or functional assay
[2] = target: T1, SARS-CoV-2 Wuhan-Hu-1 RBD (SARS-CoV-2, Wuhan-Hu-1 (GenBank …, UniProt P0DTC2)); assay: BLI; conditions: both partners purified
[3] = target: T1, SARS-CoV-2 Wuhan-Hu-1 RBD; assay: cell-based or functional assay

| Binder | neutralisation IC50, WT (293TAce2) [1] [µg/mL] | binding result [2] | neutralisation IC50, Wuhan-Hu-1 pseudovirus [3] [µg/mL] |
| --- | --- | --- | --- |
| JN007 (antibody, V domains shown) VH: EVQLVESGGGLIQPGGSLRLSCAASGFTVSSNYMSWVRQAPGKGLEWVSVIYTGGSTYYADSVKGRFTISRDNSNNSLYLRMNSLRAEDTAVYYCARGPYYDFRSGYSPGWFDPWGQGTLVTVSS VL: not shown | > 1 | – | – |
| JN109 (antibody, V domains shown) VH: QVQLVESGGGVVQPGRSLRLSCAASGFTFSSYGMHWVRQAPGKGLEWVAVIWYDGSNKYYADSVKGRFTISRDNSKNTLYLQMNSLRAEDTAVYYCARVRTIFRPLDYMDVWGKGTTVTVSS VL: not shown | > 1 | – | – |
| JN110 (antibody, V domains shown) VH: QVQLVQSGAEVKKPGSSVKVSCKASGGTFSSYAISWVRQAPGQGLEWMGGIIPIFGTANYAQKFQGRVTITADKSTSTAYMELSSLRSEDTAVYYCARDPAFYYDILTGYGGYYYYGMDVWGQGTTVTVSS VL: DIVMTQTPLSLSVTPGQPASISCKSSQSLLHSDGKTYLYWYLQKPGQPPQLLIYEVSNRFSGVPDRFSGSGSGTDFTLKISRVEAEDVGVYYCMQSIQLPPTFGQGTKVEIK | > 1 | – | – |
| JN115 (antibody, V domains shown) VH: QVQLVQSGAEVRKPGASVKVSCKVSGYTLIDLSIHWVRQAPGKGLEWMGGFDPEDGETIYAQKFQGRVTMTEDTSTDTAYMELSSLRSEDTAVYYCATSSSIVISGWFDPWGQGTLVTVSS VL: QSALTQPASVSGSPGQSITISCTGTSSDVSGYNYVSWYQQHPGKVPKLLIYDVSNRPSGVSNRFSGSKSGNTASLTISGLQAEDEADYYCSSYTSSSTLVYVFGTGTKVTVL | > 1 | – | – |
| JN117 (antibody, V domains shown) VH: QVQLVQSGAEVKKPGASVKVSCKASGYTFTSYDINWVRQATGQGLEWMGWMNPNSGNTGYAQKFQGRVTMTRNTSISTAYMELSSLRSEDTAVYYCALGTTPWYYFDYWGQGTLVTVSS VL: SYELTQPPSVSVSPGQTARITCSGDALPKQYAYWYQQKPGQAPVLVIYKDSERPSGIPERFSGSSSGTTVTLTISGVQAEDEADYYCQSADSSGTYVFGTGTKVTVL | > 1 | – | – |
| JN103 (antibody, V domains shown) VH: EVQLVKSGGGLIQPGGSLRLSCAASGFTVSSNYMSWVRQAPGKGLEWVSVIYSGGSTYYADSVKGRFTISRDNSKNTLYLQMNSLRAEDTAVYYCARDLYSSGGTDIWGQGTMVTVSS VL: QTVVTQEPSFSVSPGGTVTLTCGLTSGSVSTSHYPSWYQQTPGQAPRTLIDSTNIRSFGVPDRFSGSILGNKAALTITGAQADDEADYYCILYVGNGIWMFGGGTRLTVL | > 1 | – | – |
| JN104 (antibody, V domains shown) VH: QVQLQESGPGLVKPSGTLSLTCAVSGGSISSNKWWSWVRQPPGKGLEWIGEIYHSGSTNYNPSLKSRVTISVDKSKNQFSLKLSSVTAADTAVYYCAILRYGSGSSLPPDNWGQGTLVTVSS VL: EIVMTQSPATLSVSPGERATLSCRASQIISNNLAWHQQKPGQAPRLLIYGASTRATGIPARFSGSGSGTEFTLTISSLQSEDFAVYYCQQYNNWPPLLTFGGGTKVEIK | > 1 | – | – |
| JN105 (antibody, V domains shown) VH: QVQLVQSGAEVKKPGASVKVSCKASGYTFTSYGISWVRQAPGQGLEWMGWISAYNGNTNYAQKLQGRVTMTTDTSTSTAYMELRSLRSDDTAVYYCARDLQRAGPWADYDFWSGYYPPSNMDVWGQGTTVTVSS VL: not shown | > 1 | – | – |
| JN010 (antibody, V domains shown) VH: EVQLVESGGDLIQPGGSLKLSCAASGVTVSSNYMTWVRQAPGKGLEWVSLIYSGGSTFYADSVKGRFTISRDNSKNTLYLLMNSLRVEDTAVYYCARDLRYYGMDVWGQGTTVTVSS VL: QTVVTQEPSFSVFPGGTVTLTCGLSSGSVSTNNYPTWYQQTPGQPPRTLIYSTDTRSSGVPDRFFGSILGNKAALTITGTQADDESHYYCVLLVGSGANAKWVFGGGTKLTVL | > 1 | – | – |
| JN008 (antibody, V domains shown) VH: EVQLVESGGDLIQPGGSLRLSCAASGFTVSSNYMNWVRQAPGKGLEWVSIIYSGGSTFYADSVKGRFTISRDNSKNTLYLQMNSLRVEDTATYFCARSYGDYYFDSWGQGTLVTVSS VL: EIVLTQSPATLSLSPGERATLSCRASQSVSSYLAWYQQKPGQAPRLLIYDASNRATGIPARFSGSGSGTDFTLTISSLEPEDFAVYYCQQRSNWPPSFTFGPGTKVDIK | > 1 | – | – |
| JN013 (antibody, V domains shown) VH: QLQLQESGPGLVKPSETLSLTCTVSGGSISSSSYYWGWIRQPPGKGLEWIGSIYYSGSTYYNPSLKSRVTISVDTSKKQFSLKLSSVTAADTAVYYCARTYYDYIWGSLLGDFWGQGTLVTVSS VL: QSALTQPRSVSGSPGQSVTISCTGTSSDVGGYNYVSWYQQHPGKAPKLMIYDVSKRPSGVPDRFSGSKSGNTASLTISGLQAEDEADYYCCSYAGSYWVFGGGTKLTVL | > 1 | – | – |
| JR077 (antibody, V domains shown) VH: EVQLVESGGGLVQPGGSLRLSCAASGFTFSDYDMHWVRQVTGKGLEWVSAVGTRGDTYYAASVKGRFTISRENAKNSLYLQMNSLRAGDTAVYYCARVGYDSTGFYYYFDYWGQGTLVTVSS VL: DIQLTQSPSSLSASVGDRVTITCRASQRIGRFLNWYQQKPGKAPKLLIYIVSSLQSGVPSRFSGSGSGTDFTLTINSLQPEDFATYYCQQTYNMPPITFGQGTRLEIK | – | binds | > 1 |
| JR078 (antibody, V domains shown) VH: VQLVESGGGVVQPGRSLRLSCAASGFIFRSYGMNWVRQAPGKGLEWVAVMSYDGNDKDYADSVKGRFTISRDDSKNTLYLQMNSLRAEDTAVYYCAKSGGLYCSGGNCYSNYFDYWGRGTLVTVSS VL: EIVLTQSPGTLSLSPGERATLSCRASQSVSSSYLAWYQQKPGQAPRLLISGASSRAAGIPDRFSGSGSGTDFTLTISRLAPEDFAVYYCQQYGYSLTFGGGTKVEIK | – | binds | > 1 |
| JR150 (antibody, V domains shown) VH: QVQLVQSGAEVKKPGASVKVSCKASRYTFASYYMHWVRQAPGQGLEWMGIINPGGGSTSYAQNFQGRVSMTSDTSTSTVYMELRSLRSEDTAVYYCARDSEFVPTAHGAFEIWGQGTMVTVSS VL: EIVLTQSPATLSLSPGERATLSCRASQSVSSYLAWYQQKPGQAPRLLIYDASNRATGIPARFSGSGSGTDFTLTISSLEPEDFAVYYCQQRSNWLVTFGGGTKVEIK | – | binds | > 1 |
| JN017 (antibody, V domains shown) VH: EVQLVESGGGLVQPGGSLRLSCAASGFTFTNHWMTWVRQAPGRGLEWVANIEGDGSDKYYVDSVKGRFTISRDNAKYSLYLHMNSLRGEDTAVYYCARHSGTYHGLDYWGQGTLVTVSS VL: QSALTQPRSVSGSPGQSVTISCTGTSSDVGGYNYVSWYQEHPGKAPKLMIYDVSKRPSGVPDRFSSSKSGNTASLTISGLQAEDEADYYCYAFAGTTWMFGGGTKLTVL | > 1 | – | – |
| JR154 (antibody, V domains shown) VH: EVQLVESGGGLVQPGRSLRLSCEASGFIFDDYAMHWVRQGPGKGLEWVSGITSNSGSMGYADSVKGRFTISRDNAKNSLYLQMNSLRPEDTAFYYCAKDMVSGVFLWFGELENWGQGTLVTVS VL: QSVLTQPPSASGTPGQRVTISCYGSRSNFGTNTVNWYQQLPGMAPRLLIHSHNQRPSGVPARFSGSKSGTSASLAISGLQSEDEAHYYCASWDGGLNAVVFGGGTKLIVL | – | binds | > 1 |
| JR195 (antibody, V domains shown) VH: EVQLVESGGGLVQPGRSLRLSCAASGFTFDDYTMHWVRQAPGKGLEWVSAISWNSDALGYADSVKGRFTISRDNAKNSLYLQMNSLRPEDTALYYCAKDIDFGGSGSFDVFHIWGHGTMVTVS VL: not shown | – | binds | > 1 |
| JR204 (antibody, V domains shown) VH: QVQLQESDPGLVTPSETLSLTCTVSGASVSSGSDYWNWIRQPPGKGLEWIGYIYYTGRTNYNPSLKSRVTISVDTSKNQFSLKLSSVTAADTAVYYCAREVIVLPAALPPFGLDVWGQGTTVTVSS VL: SYELTQPPSVSVAPGKTARITCGGNNIGTKSVHWYQQKPGQAPVLVVYDDSDRPSGIPERFSGSNSENTATLTISRVEAGDEADYSCQVWDSSGDHVVFGGGTKLTVL | – | binds | > 1 |
| JR325 (antibody, V domains shown) VH: QVQLQESGPGLVKPSQTLSLTCTVSGGSISSSDYYWSWIRQHPGKGLEWIGFIFYSGTTYYSPALKSRVSISVDTSKSQFSLKLHSVTAADTAVYYCARFSRNLGLNWFDPWGQGTLVTVSS VL: QFVLTQPASVSGSPGQSITISCTGTSSDIGSYDLVSWYQQYPGKAPKLIIYEVNKRPSGVSSRFSGSKSGNTASLTISGLLAEDEADYYCCSYAGPNTVLFGGGTILTV | – | binds | > 1 |
| JR340 (antibody, V domains shown) VH: EVQLVESGGGLVQPGRSLRLSCTASGFTFHDYALQWVRQVPGKGLEWVSGISWNSASTGYADSVKGRFTISRDNAKNSLYLQMNSLRAEDTALYYCAKVRSTSCYLACGMDVWGQGTTVTVSS VL: QSALTQPASVSGSPGQSITISCTGTSSDVGSYNLVSWYQQHPGKAPKLMISEVSKRPSGVSNRFSGSKSGNTASLTISGLQAEDEADYYCCSYALSRILFGGGTKLTVL | – | binds | > 1 |
| JN003 (antibody, V domains shown) VH: EVQLVESGGGLVQPGGSLRLSCAASGFTFNSYWMTWIRQAPGKGLEWVANIAPDGSDTYYVDSVRGRFIISRDNAKNSLYLHMNSLRPEDTAVYYCANTPAAVGEYWGQGTLVTVSS VL: QAVVTQEPSLSVSPGGTVTVTCGLSSGSVSTNNYPTWYQQTPGQPPRTLMYSTNTRSPGVLDRFSGSILGNKAALTITGAQADDESHYYCVLLVGSGANAKWVFGGGTKLTVL | > 1 | – | – |
